# Reference: the nanobody polyreactivity screen of Harvey et al. (2022)
# Assay: yeast display, Sf9 membrane polyspecificity reagent, FACS + sequencing; frameworks hold sequencing errors
# In short: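 Using colony PCR, genes from sorted yeast display clones were amplified, then sequenced on MiSeq at 2 × 250 and filtered by CDR length. The clones had been stained with 10% biotinylated, detergent-solubilized Sf9 membrane reagent for 1 hour at 4 °C and sorted by FACS into low and high (top ~1%) gates on anti-HA and streptavidin fluorescence. Polyreactivity labels come from the gate of origin.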
row,Sequence,polyreactivity (PSR sort gate)
1,QVQLVESGGGLVQAGGSLRLISAASGSSFSSYAMGWYRQAPGKERDLVAAISWRGGSTYYADSVKGRFTISRDNAKNTVYLQMNSLKTEDTAVYFCAKLVRGVGTEMYYWGQGTQVTVSS,high polyreactivity
2,QVQLVESGGGLVQAGGSLRLLCAASGSTIVTNAMGWYRQAPGKERELVAAITSSDGITYYADSVKGRFTISRDNAKNTVYLQMNSLKPEDTAVYYCAAELVSVRYLYALHDRDYWGQGTQVTVSS,low polyreactivity
3,QVQLVESGGGLVQAGGSLRLNCAASGGIFRGYAMVWYRQAPGKERELVATITYSGTSTYYADSVKGRFTISRDYAKNTVYLQMNSLKPEYTAVYYCNADWWFKYDYWGQGTQVTVSS,low polyreactivity
4,QVQLVESGGGLVQAGGSLRLNCAASGRSFQSYAMGWYRTAPGKERELVAAITWSGGDTYYADSVKGRFTISRDNAKNTVYLQMNSLKPEDTAVYYCAKEQGLYSVSPYDYWGQGTQVTVSS,low polyreactivity
5,QVQLVESGGGLVQAGGSLRLNCAASGRTLVLYVMGWYRQAPGKERELVAAISRSGGRTYYADSVKGRFTISRDNAKNTVYLQMNSLKPEDTAVYYCAAYTSYASDYWGQGTLVTVSS,high polyreactivity
6,QVQLVESGGGLVQAGGSLRLNCAASGSIFDDYAMGWYRQAPGKERELVAAINIRTGSTYYADSVKGRFTISRDNAKNTVYLQMHSLKPEDTEVYYCNRVVRGFVRHLDYWGQGTQVTVSS,low polyreactivity
7,QVQLVESGGGLVQAGGSLRLRCAASGFIFRWYAMGWYRQAPGKERELVARISNGGSTYYADSVKGRFTISRDNAKKTVYLQMNSLKPEDTAVYYCAARLPYGYYSAGYYYWGQGTQVTVSS,high polyreactivity
8,QVQLVESGGGLVQAGGSLRLRCAASGFILYPYAMGWYRQAPGKERELVAAITSRGGRTYYADSVKGRFTISRDKAKHSVYFQMNSLKPEDTAVFYCAAKRTCNYAPLKYYSWGQGTQVTVSS,high polyreactivity
9,QVQLVESGGGLVQAGGSLRLRCAASGFTFRYYAMGWYRQAPGKERELVASTYYADSVKGRFTISRDNAKNTVYLQMNSLKPEDTAVYYCNVDGTSSSPFVQKHKEMDYWGQGTQVTVSS,low polyreactivity
10,QVQLVESGGGLVQAGGSLRLRCAASGFTFYHYAMGWYRQAPGKERELVAAITWSGGDTYYADSVKGRFTISRDNAKNTVYLQMNSLKPEDTAVYYCNADDPPGAPYYDSFDYRGDYWGQGTQVTVSS,low polyreactivity
11,QVQLVESGGGLVQAGGSLRLRCAASGFTIWPYAMGWYRQAPGKERELVAGITRKGGSTYYADSVKGRFTISRDNAKNTVYLQMNSLKPEDTAVYYCNTKYAVEIDYWGQGTQVTVSS,low polyreactivity
12,QVQLVESGGGLVQAGGSLRLRCAASGFTLRLYTMAWYRQAPGQERELVAAINKRGGSTYYADSVKGRFTISRDNAKNSVYLQMISLKPEDTAVYYCANVPGYKAYEYDYWGQGTQVTVSS,high polyreactivity
13,QVQLVESGGGLVQAGGSLRLRCAASGINFGYYAMGWYRQAPGKERELVAAITSGASTDYADSVKGRFTISRDNAKNTVYLQMNSLKPEDTAVYYCNADTSASTYTFPFDYCGQGTQVTVSS,low polyreactivity
14,QVQLVESGGGLVQAGGSLRLRCAASGLTFRYYAMGWYRQAPGKERELVAAISRTGRTNYSDSVKGRFTISRDNAKNTVYLQMNSLKPEDTAVYYCAATGIYAKALLWYDYWGQGTQVTVSS,high polyreactivity
15,QVQLVESGGGLVQAGGSLRLRCAASGLTFVRYTMGWYRPAPGKERELVAAITYSDASTYYADSVKGRFTISRDNAKNTVYLQKNSLKPEDTAVYYCAAVYFGGPRSNSPYSRYGYWGQGTQVTVSS,low polyreactivity
16,QVQLVESGGGLVQAGGSLRLRCAASGLTFWGYPMGWYRQAPGKEREFVASITSGGGSTYYADSVKGRFTISRDNAKNTVYLQMNILNPEDTAVYYCNVDVHLYLYKSYTYRYYYWGQGTQVTVSS,low polyreactivity
17,QVQLVESGGGLVQAGGSLRLRCAASGRIFDYYAMGWYRPAPGNERELVAALSSSVGNTYYADSVKGRFTISRDNAKNTVYLQMNSLKPEDTAVYYCADNYYVRSSYEVEYDYWGQGTQVTVSS,low polyreactivity
18,QVQLVESGGGLVQAGGSLRLRCAASGRIFPDNAMGGYRQAPGKERELVAAITYSGGSTSYADSVKGRFTISRDNAKNTVYLQMNRLKPEDTAVYYCIKAGGTSYDYVRVDKFPGVYWGQGTQVTVSS,low polyreactivity
19,QVQLVESGGGLVQAGGSLRLRCAASGRIFRLYDMGWYRHAPGKEREFVAAISSSGDSTYYADSVKGRFTISRDNAKNTVYLQMNSLKPEDTAVYYCAAVTRRYVLSTFYYWGQGTQVTVSS,high polyreactivity
20,QVQLVESGGGLVQAGGSLRLRCAASGRIFRSYAMGWYRQAPGKEWEMVAAITSGTRTNYADSVKGRCTISRDNAKNTVYLQMNSLKPEDTAVSYCAARGSGFPPYRTRNYWGQGTQVTVSS,high polyreactivity
21,QVQLVESGGGLVQAGGSLRLRCAASGRIFTYYTMGWYIQAAGKEMELDANITTGGSTNYADSVKGRFTISRDNAENTVYLQMNSLKPEDSAVYYCNKDGVVEVRFTGRHEYDYWGQGTQVTVSS,low polyreactivity
22,QVQLVESGGGLVQAGGSLRLRCAASGRIFVHYVMVWSRQAPGKEREFVAAITIGSTYADSVKGRFTISRDNAKNTVYLQMNSLKPEDTAVYYCNARWVVNVRTQGSPPYKYDYWGQGSQVTVSS,low polyreactivity

row,Sequence,polyreactivity (PSR sort gate)
1,QVQLVESGGGLVQAGGSLRLRCAASGRIFYSNTMGWYRQAPGKERELVADITSGGSTKYADSVKGRFTISRDNAKNTVYLQMISLKPEDTAVYYCAAGERYDWWYGGFQGYDYWGQGTQVTVSS,high polyreactivity
2,QVQLVESGGGLVQAGGSLRLRCAASGRTFAVYAMGWYRQAPGKERELVAAITLGASRTYYADSVKGRFTISRDNAKNTVYLQMNSLKPEDTAVYYCAVTWGARTDQWSLRVFVGYDYWGQGTQVTVSS,low polyreactivity
3,QVQLVESGGGLVQAGGSLRLRCAASGRTFDGYAMGWYRQAHGKERELVAAISKRGGSTYYADSVKGRCTISRDNAKNSVYFQMNSLKPEDTAVYYCNKRYFGDQTWVGGDSWGQGTQVTVSS,high polyreactivity
4,QVQLVESGGGLVQAGGSLRLRCAASGRTFGEYTMGWYRQAPGKERELVAAISSAGRTNYADSVKGRFTISRDNAKNTVYLQMNSLKPEDSGVYYCAADWTDDVRGYDYWGQGTQVTVSS,low polyreactivity
5,QVQLVESGGGLVQAGGSLRLRCAASGRTFRTYTMGWYRKAPGKERELVAAISYSGGSTYYADSVKGRFTISRDNAKNTVYLQMNSLKPEDTAVYYCAIRPYPYKYDYWGQGTQVTVSS,high polyreactivity
6,QVQLVESGGGLVQAGGSLRLRCAASGRTFWVNAMGCDRQAPGTERELVAGITFRGGSTDYADSVKGRFTISRDNAQNTVYLQMNRLKPEDTAVDDCAARVYRYGAMDYWGQGTQVTVSS,high polyreactivity
7,QVQLVESGGGLVQAGGSLRLRCAASGRTFYGYAMGWYRQAPGKEREFVAAITYTGGRTYYADSVKGRFTISRDNAKNTVYLQMNSLKPEDTAVYYCNAYYYYVNQGRFEYGYWGQGTQVTVSS,high polyreactivity
8,QVQLVESGGGLVQAGGSLRLRCAASGRTFYYAMGWYRQAPGKERYADSVKGRFTISRDNAKNTVYLQMNSLKPEDTAVYYCAAKVPDPPSLDESDYWGQVTQVTVSS,low polyreactivity
9,QVQLVESGGGLVQAGGSLRLRCAASGRTLVAYAMGWYRQAPGKERELVAAIDTDTGITYYADSVKGRFTISRDNAKNTVYLQMNSLKPEDTAVYYCAAETYYAVSTGYDFDYWGQGTQVTVSS,high polyreactivity
10,QVQLVESGGGLVQAGGSLRLRCAASGSIFFRYAMGWYRQAPGKERELVANISSGGGNTYYADSVKGRFTISRDNAKNTVYLQMNSLKPEDTAVYYCARRLATRGHTYDYWGQGTQVTVSS,low polyreactivity
11,QVQLVESGGGLVQAGGSLRLRCAASGSIFVYYAMGWYRQAPGKERELVAAITWRGDNTYYADSVKGRFTISRDNAKNSVYLQMNSLKPEDTAVYYCAADSYTSIFDYWGQGTQVTVSS,low polyreactivity
12,QVQLVESGGGLVQAGGSLRLRCAASGSIFYRNAMGWNRQAPGKERELVSANTRTGGSTYYADSVQARFTISRDNAKNTVYLQMNSLKPEDTAVYYCPAETWYRWPRSAWRFDYWGQGTQVNVSS,high polyreactivity
13,QVQLVESGGGLVQAGGSLRLRCAASGSTFAYYAMGWYRQAPGKEREFVATITWTGGSTNYADSVKARFTISRDNAKNTVYLQMNSLKPEDTAVYYCAAAFVISYDYWGQGTQVTVSS,high polyreactivity
14,QVQLVESGGGLVQAGGSLRLRCAASGSTFDVYAMGWYRQAPGKERELVASISITDGSTYYADSVKGRFTISRDNAKNTVYLQMNSLIPEVTAVYYCAAEYHTLSKYSGYATHVYWGQGTQVTVSS,low polyreactivity
15,QVQLVESGGGLVQAGGSLRLRCAASGSTFKFYAMGWYRQAPGKEREFVAAITGSGGSTYYADSVKGRFTISRDNAKNTVYLQMNSLKPEDTAVYYCNTTPVLQLYYWGQGTQVTVSS,low polyreactivity
16,QVQLVESGGGLVQAGGSLRLRCAASGSTFQRYAMGWYRQAPGKERELVAAITWSGGSTKYADSVKGRFTISRDNAKTTVYLQMNCLKPEDTAVYYCARTYLSSRWGQGTQVTVSS,low polyreactivity
17,QVQLVESGGGLVQAGGSLRLRCAASGSTFRANAMGWYRQAPGKERELVAAISWSGGRTYYADSVKGRFTISRDNAKNTVYLQMNSLKPEDTAVYYCAAPKLTSYDSWGQGTQVTVSS,high polyreactivity
18,QVQLVESGGGLVQAGGSLRLRCAASGSTFSGYAMGWYRKGPGKERELVAAISSGGGSTYYADSVKGRFTISRYNAKNTVYLQMNSLKPEDTDVYYCATGYPWYCGQGTQVTVSS,high polyreactivity
19,QVQLVESGGGLVQAGGSLRLRCAASGSTFTGNTMGWYRQAPGKERELVAAITYRGGSTYYADSVKGRLTISRDNAKNTVYLQMNSLKPEDTAVYYCAAAGYYYSVEGAGPRYDYWGQGTQVTVSS,low polyreactivity
20,QVQLVESGGGLVQAGGSLRLRCAASGSTSPFNAMGWYRQAPGKERELVASITSSGSTNYADSVKGRFTISRDNAKNTVYLQINSLKPEDTAVYYCASEGVVSETFYAYWGQGTQVTVSS,low polyreactivity
21,QVQLVESGGGLVQAGGSLRLRCAATGFISVTYAMGWYRQAPGKERELVAAITYSGGSTYYADSVKGRFTISRDNAKNTVYLQMNSLKPEDTAVYYCATEPQSDYSYDYWGQGTQVTVSS,low polyreactivity
